From patent publication US20240262922A1 (Merck KGaA, published 2024)

T1: recombinant human OX40L protein (R&D Systems, cat. #1054-OX) (human, UniProt P23510 51-183)
T1 sequence: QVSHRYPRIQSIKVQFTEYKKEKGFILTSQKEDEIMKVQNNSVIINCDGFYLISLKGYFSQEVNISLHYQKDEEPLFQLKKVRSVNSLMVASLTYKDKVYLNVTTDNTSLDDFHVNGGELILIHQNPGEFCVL

T2: AVI-GST-His6-hOX40L (human, UniProt P23510 51-183)
T2 sequence: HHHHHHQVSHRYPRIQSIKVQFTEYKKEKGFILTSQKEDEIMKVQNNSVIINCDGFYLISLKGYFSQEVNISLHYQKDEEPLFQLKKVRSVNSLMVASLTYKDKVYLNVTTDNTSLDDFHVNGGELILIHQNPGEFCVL

T3: mouse OX40L (mouse, UniProt P43488 51-198, limits assumed)
T3 sequence: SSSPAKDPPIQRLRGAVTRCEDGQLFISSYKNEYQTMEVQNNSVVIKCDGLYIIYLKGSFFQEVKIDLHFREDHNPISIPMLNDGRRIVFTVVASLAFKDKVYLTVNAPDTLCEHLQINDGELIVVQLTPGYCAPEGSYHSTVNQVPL

T4: recombinant cynomolgus monkey OX40L (Novoprotein cat. #CP72) (cynomolgus monkey, UniProt P23510 51-183 (human entry), limits assumed)
T4 construct: Bought protein; also called cynomolgus OX40L
T4 chain: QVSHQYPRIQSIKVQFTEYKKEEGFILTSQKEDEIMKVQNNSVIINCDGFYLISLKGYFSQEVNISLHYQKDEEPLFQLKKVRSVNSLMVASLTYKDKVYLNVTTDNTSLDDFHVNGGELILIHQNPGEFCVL


Assays:
[1] = molecular target: T1, recombinant human OX40L protein (R&D …); test: cell-based or functional assay
AVI-GST-His6-hOX40L = molecular target: T2, AVI-GST-His6-hOX40L; test: cell-based or functional assay
[2] = molecular target: T1, recombinant human OX40L protein (R&D …); test: SPR steady state, Biacore T200; OX40L immobilised on CM5, FcFab in solution
Protocol: (§1) Recombinant OX40L proteins (human OX40L protein, R&D systems, cat. #1054-OX; cynomolgus monkey OX40L, Novoprotein cat. #CP72) were immobilized onto Biacore CM5 sensor chips and anti-OX40L antibodies were bound to this surface at a range of concentrations. The response at steady state was measured with a Biacore T200 instrument (GE Healthcare) and plotted against the concentration of antibody and fit to a 1:1 binding model. The steady state KD was determined as the antibody concentration at a response equal to half the maximal response (Rₘₐₓ).
As with the IgG clones, binding affinity to human OX40L was determined for all twelve FcFabs using steady state affinity assay as described in section 1.1.7 of Example 1. […]

[3] = molecular target: T1, recombinant human OX40L protein (R&D …); test: SPR steady state, Biacore T200; OX40L immobilised on CM5, antibody in solution
Protocol: as §1
Steady state affinity assay was performed as described in section 1.1.7 of Example 1.

mouse OX40L = molecular target: T3, mouse OX40L; test: flow cytometry on CHO-S cells / ELISA on recombinant protein (sentence does not say which)
[4] = molecular target: T4, recombinant cynomolgus monkey OX40L …; test: flow cytometry on CHO-S-OX40L cells / ELISA on recombinant OX40L (sentence does not say which)

Binder | Primary T cell activation assay IC50 [1] [nM] | OX40L neutralization/OX40-HEK Reporter IC50 (AVI-GST-His6-hOX40L) [nM] | Kd [2] [nM] | Kd [3] [nM] | binding result (mouse OX40L) | binding result [4]
85F12 (FcFab) (antibody) chain 1: EPKSSDKTHTCPPCPAPPVAGPSVFLFPPKPKDTLMISRTPEVTCVVVDVSHEDPEVKFNWYVDGVEVHNAKTKPREEQYNSTYRVVSVLTVLHQDWLNGKEYKCAVSNKALPSSIEKTISKAKGQPREPQVYTLPPSREEMTKNQVSLTCLVKGFYPSDIAVEWESNGQPENNYKTTPPVLDSDGSFFLYSKLTVDKSRWQQGNVFSCSVMHEALHNHYTQKSLSLSPGAGGGGSGGGGSGGGGSQVQLQQSGPGLVKPSQTLSLTCAISGDSVSSNSAVWNWIRQSPSRGLEWLGRTDYRSKWNNDYAVSVKSRITINPDTSKNQFSLQLNSVTPEDTAVYYCARGDAGMASFDYWGQGTLVTVSSASTKGPSVFPLAPSSKSTSGGTAALGCLVKDYFPEPVTVSWNSGALTSGVHTFPAVLQSSGLYSLSSVVTVPSSSLGTQTYICNVNHKPSNTKVDKRVEPKSC chain 2: SSELTQPPSVSVSPGQTASITCSGDKLGDKYACWYQQKAGQSPVVVIYQDRKRPSGIPERFSGSNSGNTATLTISGTQAMDEADYYCQTWDRRTAVFGGGTKLTVLGQPKAAPSVTLFPPSSEELQANKATLVCLISDFYPGAVTVAWKADSSPVKAGVETTTPSKQSNNKYAASSYLSLTPEQWKSHKSYSCQVTHEGSTVEKTVAPTECS | > 161 | > 161 | 34.1 | – | – | –
85F12 (IgG) (antibody) heavy: not shown light: SSELTQPPSVSVSPGQTASITCSGDKLGDKYACWYQQKAGQSPVVVIYQDRKRPSGIPERFSGSNSGNTATLTISGTQAMDEADYYCQTWDRRTAVFGGGTKLTVLGQPKAAPSVTLFPPSSEELQANKATLVCLISDFYPGAVTVAWKADSSPVKAGVETTTPSKQSNNKYAASSYLSLTPEQWKSHKSYSCQVTHEGSTVEKTVAPTECS | – | – | – | 75.6 | no binding | binds
89B09 (FcFab) (antibody) heavy: EPKSSDKTHTCPPCPAPPVAGPSVFLFPPKPKDTLMISRTPEVTCVVVDVSHEDPEVKFNWYVDGVEVHNAKTKPREEQYNSTYRVVSVLTVLHQDWLNGKEYKCAVSNKALPSSIEKTISKAKGQPREPQVYTLPPSREEMTKNQVSLTCLVKGFYPSDIAVEWESNGQPENNYKTTPPVLDSDGSFFLYSKLTVDKSRWQQGNVFSCSVMHEALHNHYTQKSLSLSPGAGGGGSGGGGSGGGGSEVQLVESGPGLVKPSETLSLTCTVSGVSIRSNGYYWGWIRQSPGKGLEWIGNMDYSGTYQNPSLTSRVTISGDASKNQFSLKLRSVTAADTAVYFCARERSNNWYPIDYWGQGTLVTVSSASTKGPSVFPLAPSSKSTSGGTAALGCLVKDYFPEPVTVSWNSGALTSGVHTFPAVLQSSGLYSLSSVVTVPSSSLGTQTYICNVNHKPSNTKVDKRVEPKSC light: SSELTQDPAVSVALGQTVRITCQGDSVRRFFAHWYQQKPGQAPILVISGKDTRPSGIPDRFSGSISGNTASLTITGAQAEDEADYYCNSRDSSGYLVLFGGGTKLTVLGQPKAAPSVTLFPPSSEELQANKATLVCLISDFYPGAVTVAWKADSSPVKAGVETTTPSKQSNNKYAASSYLSLTPEQWKSHKSYSCQVTHEGSTVEKTVAPTECS | 6.1 | 4.7 | 44.8 | – | – | –

More lines, in order of falling Kd [2], values ahead:

Primary T cell activation assay IC50 [1] [nM] | OX40L neutralization/OX40-HEK Reporter IC50 (AVI-GST-His6-hOX40L) [nM] | Kd [2] [nM] | Kd [3] [nM] | binding result (mouse OX40L) | binding result [4] | Binder
38 | 30.8 | 64.1 | – | – | – | 95B06 (FcFab) (antibody) chain 1: EPKSSDKTHTCPPCPAPPVAGPSVFLFPPKPKDTLMISRTPEVTCVVVDVSHEDPEVKFNWYVDGVEVHNAKTKPREEQYNSTYRVVSVLTVLHQDWLNGKEYKCAVSNKALPSSIEKTISKAKGQPREPQVYTLPPSREEMTKNQVSLTCLVKGFYPSDIAVEWESNGQPENNYKTTPPVLDSDGSFFLYSKLTVDKSRWQQGNVFSCSVMHEALHNHYTQKSLSLSPGAGGGGSGGGGSGGGGSEVQLLESGGGLVQPGGSLRLSCAASGFTFSSYAMTWVRQAPGKGLEWVSDISGSGGSTKYADSVKGRFTISRDNPKNTLYLQMNSLRAEDTAVYYCAKDLGFYSTWDTDYWGQGTLVTVSSASTKGPSVFPLAPSSKSTSGGTAALGCLVKDYFPEPVTVSWNSGALTSGVHTFPAVLQSSGLYSLSSVVTVPSSSLGTQTYICNVNHKPSNTKVDKRVEPKSC chain 2: DMQMTQSPSSLSASVGDRVTITCRASQGIRNDLDWYQQKPGKVPKRLIHAASSLQSGVPSRFSGSGSGTEFTLTISSLQPEDFVTYYCLQHNTYPWTFGQGTKLEIKRTVAAPSVFIFPPSDEQLKSGTASVVCLLNNFYPREAKVQWKVDNALQSGNSQESVTEQDSKDSTYSLSSTLTLSKADYEKHKVYACEVTHQGLSSPVTKSFNRGEC
2.9 | 52.8 | 56 | – | – | – | 30F02 (FcFab) (antibody) chain 1: EPKSSDKTHTCPPCPAPPVAGPSVFLFPPKPKDTLMISRTPEVTCVVVDVSHEDPEVKFNWYVDGVEVHNAKTKPREEQYNSTYRVVSVLTVLHQDWLNGKEYKCAVSNKALPSSIEKTISKAKGQPREPQVYTLPPSREEMTKNQVSLTCLVKGFYPSDIAVEWESNGQPENNYKTTPPVLDSDGSFFLYSKLTVDKSRWQQGNVFSCSVMHEALHNHYTQKSLSLSPGAGGGGSGGGGSGGGGSQLQLQESGPGLVKPSETLSLTCTVSGASISSSNHYWGWGWIRQPPGKGLEWIGSIYYSGNTYYNPSLKSRVTISVDTSKNQFSLKLSSVTAADTAVYYCARHRGSYFFDHWGQGTLVTVSSASTKGPSVFPLAPSSKSTSGGTAALGCLVKDYFPEPVTVSWNSGALTSGVHTFPAVLQSSGLYSLSSVVTVPSSSLGTQTYICNVNHKPSNTKVDKRVEPKSC chain 2: SYVLTQPLSVSVALGQTARITCGGNNIGDKNVHWYQQKPGQAPVLVISRDSNRPSGIPERFSGSNSGNTATLTISRAQAGDESDYYCQVWDSSTVVFGGGTKVTVLGQPKAAPSVTLFPPSSEELQANKATLVCLISDFYPGAVTVAWKADSSPVKAGVETTTPSKQSNNKYAASSYLSLTPEQWKSHKSYSCQVTHEGSTVEKTVAPTECS
6.3 | > 161 | 50.1 | – | – | – | 85F10 (FcFab) (antibody) chain 1: EPKSSDKTHTCPPCPAPPVAGPSVFLFPPKPKDTLMISRTPEVTCVVVDVSHEDPEVKFNWYVDGVEVHNAKTKPREEQYNSTYRVVSVLTVLHQDWLNGKEYKCAVSNKALPSSIEKTISKAKGQPREPQVYTLPPSREEMTKNQVSLTCLVKGFYPSDIAVEWESNGQPENNYKTTPPVLDSDGSFFLYSKLTVDKSRWQQGNVFSCSVMHEALHNHYTQKSLSLSPGAGGGGSGGGGSGGGGSEVQLLESGAGLLKPSETLSLTCAVYGGSFSDYYWSWIRQPPGKGLEWIGEINHSGSTNYNPSLKSRVTISVDTSKNQFSLKLSSVTAADTAVYYCARKRGANFFDDWGQGTLVTVSSASTKGPSVFPLAPSSKSTSGGTAALGCLVKDYFPEPVTVSWNSGALTSGVHTFPAVLQSSGLYSLSSVVTVPSSSLGTQTYICNVNHKPSNTKVDKRVEPKSC chain 2: SYELTQPLSVSVALGQTARITCGGNNIENKNVHWYQQKPGQAPVLVIKRDSNRPSGIPERLSGSNSGNTATLTISRAQAGDEADYYCQVWDSSTVVFGGGTKLTVLGQPKAAPSVTLFPPSSEELQANKATLVCLISDFYPGAVTVAWKADSSPVKAGVETTTPSKQSNNKYAASSYLSLTPEQWKSHKSYSCQVTHEGSTVEKTVAPTECS
> 161 | 102 | 35.5 | – | – | – | 88B06 (FcFab) (antibody) chain 1: EPKSSDKTHTCPPCPAPPVAGPSVFLFPPKPKDTLMISRTPEVTCVVVDVSHEDPEVKFNWYVDGVEVHNAKTKPREEQYNSTYRVVSVLTVLHQDWLNGKEYKCAVSNKALPSSIEKTISKAKGQPREPQVYTLPPSREEMTKNQVSLTCLVKGFYPSDIAVEWESNGQPENNYKTTPPVLDSDGSFFLYSKLTVDKSRWQQGNVFSCSVMHEALHNHYTQKSLSLSPGAGGGGSGGGGSGGGGSEVQLLESGGGLVQPGGSLRLSCAASGFTFSNYAMSWVRQAPGKGLEWVSVISGSGDSTYYAESVKGRFTISRDNSKNTLYLQMTSLRAEDTAEYYCAKDRTPVYGLDVWGQGTTVTVSSASTKGPSVFPLAPSSKSTSGGTAALGCLVKDYFPEPVTVSWNSGALTSGVHTFPAVLQSSGLYSLSSVVTVPSSSLGTQTYICNVNHKPSNTKVDKRVEPKSC chain 2: SYELTQPLSVSVALGQTARISCGGNNIGRKNVHWYQQKPGQAPVLVIYGDSNRPSGIPERFSGSNSGNTATLTIGRAQAGDEADYYCQVWDSSTVFGGGTKLTVLGQPKAAPSVTLFPPSSEELQANKATLVCLISDFYPGAVTVAWKADSSPVKAGVETTTPSKQSNNKYAASSYLSLTPEQWKSHKSYSCQVTHEGSTVEKTVAPTECS
